Results reported in patent publication US20190111149A1, “ANTI-EGFR ANTIBODY DRUG CONJUGATE” (priority 2016, published 2019).

Columns and labels:
[1] = molecular target: MBI_CD19_2; (MOR208); experiment: BLI Octet, antibody on anti-human Fc tip, peptide 37 nM
[2] = molecular target: MBI_CD19_1; (SAR3419); experiment: as above
[3] = molecular target: Meditope enabled Ocaratuzumab; experiment: as above
[4] = molecular target: Photo optimized trastuzumab; meditope enabled (Tmab); experiment: as above
Chain of Photo optimized trastuzumab; meditope enabled (Tmab) (chain, as listed by the source, chain 1 of 2): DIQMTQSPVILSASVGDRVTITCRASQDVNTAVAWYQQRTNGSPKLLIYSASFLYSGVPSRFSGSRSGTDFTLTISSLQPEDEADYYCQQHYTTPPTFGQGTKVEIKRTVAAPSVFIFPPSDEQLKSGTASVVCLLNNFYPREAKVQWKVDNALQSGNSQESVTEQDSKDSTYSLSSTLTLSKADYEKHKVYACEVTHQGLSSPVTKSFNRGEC
Chain of Photo optimized trastuzumab; meditope enabled (Tmab) (chain, as listed by the source, chain 2 of 2): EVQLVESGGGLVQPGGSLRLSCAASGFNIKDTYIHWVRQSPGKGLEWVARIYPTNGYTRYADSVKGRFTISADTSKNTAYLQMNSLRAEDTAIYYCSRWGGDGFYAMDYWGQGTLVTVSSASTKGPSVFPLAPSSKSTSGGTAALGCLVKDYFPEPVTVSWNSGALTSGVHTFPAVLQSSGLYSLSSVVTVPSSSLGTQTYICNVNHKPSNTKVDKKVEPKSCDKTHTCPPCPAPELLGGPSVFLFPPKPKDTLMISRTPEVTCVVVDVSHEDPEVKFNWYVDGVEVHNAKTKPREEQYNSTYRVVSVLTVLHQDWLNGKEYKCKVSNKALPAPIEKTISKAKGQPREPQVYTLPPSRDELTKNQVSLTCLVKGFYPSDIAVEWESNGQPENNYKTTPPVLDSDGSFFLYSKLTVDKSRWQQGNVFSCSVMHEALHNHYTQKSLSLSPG

[5] = molecular target: Meditope enabled Clivatuzumab; experiment: BLI Octet, antibody on anti-human Fc tip, peptide 333 nM
Chain of Meditope enabled Clivatuzumab (chain, as listed by the source, chain 1 of 2): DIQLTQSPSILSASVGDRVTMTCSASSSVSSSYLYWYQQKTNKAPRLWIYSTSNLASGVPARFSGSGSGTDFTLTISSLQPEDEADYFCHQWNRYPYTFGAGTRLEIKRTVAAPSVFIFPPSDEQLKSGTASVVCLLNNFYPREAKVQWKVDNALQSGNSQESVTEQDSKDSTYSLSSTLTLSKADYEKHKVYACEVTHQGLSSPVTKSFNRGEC
Chain of Meditope enabled Clivatuzumab (chain, as listed by the source, chain 2 of 2): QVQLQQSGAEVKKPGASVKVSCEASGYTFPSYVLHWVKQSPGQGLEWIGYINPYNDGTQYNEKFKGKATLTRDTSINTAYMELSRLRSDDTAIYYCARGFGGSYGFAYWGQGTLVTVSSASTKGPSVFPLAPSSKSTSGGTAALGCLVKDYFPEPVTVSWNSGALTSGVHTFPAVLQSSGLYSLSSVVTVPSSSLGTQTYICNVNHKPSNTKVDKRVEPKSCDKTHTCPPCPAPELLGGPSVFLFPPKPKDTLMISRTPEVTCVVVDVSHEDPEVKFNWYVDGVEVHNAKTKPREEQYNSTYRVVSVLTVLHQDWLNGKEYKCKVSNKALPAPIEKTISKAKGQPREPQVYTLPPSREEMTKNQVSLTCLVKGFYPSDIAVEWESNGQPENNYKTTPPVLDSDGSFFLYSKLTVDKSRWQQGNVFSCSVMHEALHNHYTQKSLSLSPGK

[6] = molecular target: MBI_CD19_2; (MOR208); experiment: as above
[7] = molecular target: MBI_CD19_1; (SAR3419); experiment: as above
[8] = molecular target: Photo optimized trastuzumab; meditope enabled (Tmab); experiment: as above
[9] = molecular target: Meditope enabled Clivatuzumab; experiment: BLI Octet, antibody on anti-human Fc tip, peptide […]
[10] = molecular target: MBI_CD19_2; (MOR208); experiment: as above
[11] = molecular target: MBI_CD19_1; (SAR3419); experiment: as above
[12] = molecular target: Meditope enabled Ocaratuzumab; experiment: as above
[13] = molecular target: Photo optimized trastuzumab; meditope enabled (Tmab); experiment: as above

Chain of MBI_CD19_1; (SAR3419) (chain, as listed by the source, chain 1 of 2): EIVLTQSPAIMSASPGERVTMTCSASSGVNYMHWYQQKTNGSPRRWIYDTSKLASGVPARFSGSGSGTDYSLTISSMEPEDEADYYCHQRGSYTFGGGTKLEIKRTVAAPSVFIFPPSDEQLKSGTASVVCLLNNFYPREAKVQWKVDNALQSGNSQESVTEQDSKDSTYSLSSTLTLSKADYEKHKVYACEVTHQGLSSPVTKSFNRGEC
Chain of MBI_CD19_1; (SAR3419) (chain, as listed by the source, chain 2 of 2): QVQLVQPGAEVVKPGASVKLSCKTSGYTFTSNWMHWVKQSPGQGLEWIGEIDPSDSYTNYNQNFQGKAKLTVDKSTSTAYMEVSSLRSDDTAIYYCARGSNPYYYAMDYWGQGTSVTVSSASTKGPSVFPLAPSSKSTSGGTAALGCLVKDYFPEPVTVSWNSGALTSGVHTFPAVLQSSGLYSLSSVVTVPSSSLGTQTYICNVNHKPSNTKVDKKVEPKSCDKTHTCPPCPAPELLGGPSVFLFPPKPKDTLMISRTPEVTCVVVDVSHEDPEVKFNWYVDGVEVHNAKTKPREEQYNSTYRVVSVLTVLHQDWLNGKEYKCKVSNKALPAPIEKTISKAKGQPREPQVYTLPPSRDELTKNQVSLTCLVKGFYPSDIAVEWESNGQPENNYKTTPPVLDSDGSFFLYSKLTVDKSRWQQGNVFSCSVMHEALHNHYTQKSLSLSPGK
Chain of MBI_CD19_2; (MOR208) (chain, as listed by the source, chain 1 of 2): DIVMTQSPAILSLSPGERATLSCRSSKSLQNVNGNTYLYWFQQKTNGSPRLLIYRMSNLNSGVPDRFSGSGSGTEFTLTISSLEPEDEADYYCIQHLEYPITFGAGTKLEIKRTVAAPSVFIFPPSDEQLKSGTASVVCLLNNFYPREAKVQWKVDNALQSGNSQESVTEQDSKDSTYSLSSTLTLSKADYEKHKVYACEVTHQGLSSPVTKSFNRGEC
Chain of MBI_CD19_2; (MOR208) (chain, as listed by the source, chain 2 of 2): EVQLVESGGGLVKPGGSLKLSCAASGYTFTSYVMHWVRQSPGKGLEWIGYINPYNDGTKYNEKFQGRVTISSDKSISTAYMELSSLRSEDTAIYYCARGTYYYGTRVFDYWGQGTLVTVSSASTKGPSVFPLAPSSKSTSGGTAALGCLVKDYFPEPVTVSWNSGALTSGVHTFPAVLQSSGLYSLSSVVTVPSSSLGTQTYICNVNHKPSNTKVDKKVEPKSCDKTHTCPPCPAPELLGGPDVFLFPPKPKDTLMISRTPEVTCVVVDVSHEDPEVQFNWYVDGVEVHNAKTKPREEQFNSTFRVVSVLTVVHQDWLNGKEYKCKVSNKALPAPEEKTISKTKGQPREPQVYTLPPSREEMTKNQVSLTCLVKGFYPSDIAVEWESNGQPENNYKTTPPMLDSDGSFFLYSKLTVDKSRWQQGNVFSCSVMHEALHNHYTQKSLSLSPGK
Chain of Meditope enabled Ocaratuzumab (chain, as listed by the source, chain 1 of 2): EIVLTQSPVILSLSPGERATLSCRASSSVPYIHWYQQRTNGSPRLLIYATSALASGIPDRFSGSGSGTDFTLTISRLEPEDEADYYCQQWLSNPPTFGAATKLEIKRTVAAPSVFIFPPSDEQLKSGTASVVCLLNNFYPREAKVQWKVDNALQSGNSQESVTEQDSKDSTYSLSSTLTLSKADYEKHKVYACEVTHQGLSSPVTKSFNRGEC
Chain of Meditope enabled Ocaratuzumab (chain, as listed by the source, chain 2 of 2): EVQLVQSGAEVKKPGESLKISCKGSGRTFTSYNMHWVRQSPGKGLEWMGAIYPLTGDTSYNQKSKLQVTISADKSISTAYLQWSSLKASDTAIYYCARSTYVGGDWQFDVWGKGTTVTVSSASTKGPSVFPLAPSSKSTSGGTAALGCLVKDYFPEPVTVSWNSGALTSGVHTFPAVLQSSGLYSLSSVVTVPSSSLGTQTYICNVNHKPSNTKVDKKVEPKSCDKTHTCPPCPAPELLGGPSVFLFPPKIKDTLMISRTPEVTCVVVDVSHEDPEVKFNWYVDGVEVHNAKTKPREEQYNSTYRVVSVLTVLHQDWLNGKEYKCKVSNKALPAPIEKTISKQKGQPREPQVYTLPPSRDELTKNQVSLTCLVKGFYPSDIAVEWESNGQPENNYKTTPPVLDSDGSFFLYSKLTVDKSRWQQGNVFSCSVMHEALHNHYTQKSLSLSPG

Kd [1]: < 0.001 nM
Kd [2]: < 0.001 nM
Kd [3]: < 0.001 nM
Kd [4]: 2.62 nM
Kd [5]: 2.69 nM
Kd [6]: < 0.001 nM
Kd [7]: 5.23 nM
Kd [8]: 1.63 nM
Kd [9]: 3160 nM
Kd [10]: 0.452 nM
Kd [11]: < 0.001 nM
Kd [12]: < 0.001 nM
Kd [13]: 1.88 nM
Binder: CQFDLSTRRLRC (modifications not checked) [Peptide 22: DM1 conjugated cQFD (cQFD-DM1)]
